In the Human Domainome abundance scans (Beltran et al. 2025) one finds abundance fitness data, which are given here for 38 variants.

± gives the uncertainty stated by the source.

B1: Far upstream element-binding protein 1, residues 98 to 169; numbered along this chain, Q96AE4 (parent)
chain: RSVMTEEYKVPDGMVGFIIGRGGEQISRIQQESGCKIQIAPDSGGLPERSCMLTGTPESVQSAKRLLDQIVE

The data set covers variants of B1. In words: abundance fitness (aPCA) (normalised: wild type 0, dead -1); higher = more abundant; growth selection in yeast, the domain comes from the species named. The conditions noted are these: Homo sapiens.
Take RSVMTEEYKVPDGMVGFIIGRGGEQISRIQQESGCKIQIAPDSGGLPERSCMLTGTPESVQSACRLLDQIVE: the abundance fitness is -0.137 ± 0.038.

On to RSVMTEEYKVPDGMVGFIIGRGGEQISRIQQESGCKIQIAPDSGGLPERSCMLTGTPESVQSAHRLLDQIVE, for which the abundance fitness is -0.136 ± 0.041.

Turning to RSVMTEEYKVPDGMVGFIIGRGGEQISRIQQESGCKIQIAPDSGGLPERSCMLTGTPESVQSADRLLDQIVE, the abundance fitness was -0.634 ± 0.047.

RSVMTEEYKVPDGMVGFIIGRGGEQISRIQQESGCKIQIAPDSGGLPERSCMLTGTPESVQSAIRLLDQIVE: the abundance fitness was -0.097 ± 0.04.

As for RSVMTEEYKVPDGMVGFIIGRGGEQISRIQQESGCKIQIAPDSGGLPERSCMLTGTPESVQSATRLLDQIVE, the abundance fitness is -0.065 ± 0.03.

In the case of RSVMTEEYKVPDGMVGFIIGRGGEQISRIQQESGCKIQIAPDSGGLPERSCMLTGTPESVQSAPRLLDQIVE, the abundance fitness was -0.781 ± 0.041.

For RSVMTEEYKVPDGMVGFIIGRGGEQISRIQQESGCKIQIAPDSGGLPERSCMLTGTPESVQSAFRLLDQIVE, the abundance fitness was -0.254 ± 0.043.

Consider RSVMTEEYKVPDGMVGFIIGRGGEQISRIQQESGCKIQIAPDSGGLPERSCMLTGTPESVQSAWRLLDQIVE, for which the abundance fitness was -0.252 ± 0.03.

Regarding RSVMTEEYKVPDGMVGFIIGRGGEQISRIQQESGCKIQIAPDSGGLPERSCMLTGTPESVQSASRLLDQIVE, the abundance fitness was -0.126 ± 0.026.

For RSVMTEEYKVPDGMVGFIIGRGGEQISRIQQESGCKIQIAPDSGGLPERSCMLTGTPESVQSAERLLDQIVE, the abundance fitness was -0.15 ± 0.03.

With RSVMTEEYKVPDGMVGFIIGRGGEQISRIQQESGCKIQIAPDSGGLPERSCMLTGTPESVQSAQRLLDQIVE, the abundance fitness is -0.104 ± 0.033.

Turning to RSVMTEEYKVPDGMVGFIIGRGGEQISRIQQESGCKIQIAPDSGGLPERSCMLTGTPESVQSAARLLDQIVE, the abundance fitness was -0.078 ± 0.027.

On to RSVMTEEYKVPDGMVGFIIGRGGEQISRIQQESGCKIQIAPDSGGLPERSCMLTGTPESVQSANRLLDQIVE, for which the abundance fitness is -0.274 ± 0.043.

Consider RSVMTEEYKVPDGMVGFIIGRGGEQISRIQQESGCKIQIAPDSGGLPERSCMLTGTPESVQNAKRLLDQIVE, for which the abundance fitness is -0.005 ± 0.041.

As to RSVMTEEYKVPDGMVGFIIGRGGEQISRIQQESGCKIQIAPDSGGLPERSCMLTGTPESVQEAKRLLDQIVE, the abundance fitness was -0.004 ± 0.029.

Take RSVMTEEYKVPDGMVGFIIGRGGEQISRIQQESGCKIQIAPDSGGLPERSCMLTGTPESVQKAKRLLDQIVE: the abundance fitness was 0.005 ± 0.033.

With RSVMTEEYKVPDGMVGFIIGRGGEQISRIQQESGCKIQIAPDSGGLPERSCMLTGTPESVQGAKRLLDQIVE, the abundance fitness was -0.01 ± 0.024.

As to RSVMTEEYKVPDGMVGFIIGRGGEQISRIQQESGCKIQIAPDSGGLPERSCMLTGTPESVQWAKRLLDQIVE, the abundance fitness was -0.059 ± 0.029.

Turning to RSVMTEEYKVPDGMVGFIIGRGGEQISRIQQESGCKIQIAPDSGGLPERSCMLTGTPESVQVAKRLLDQIVE, the abundance fitness was determined as 0.012 ± 0.027.

In the case of RSVMTEEYKVPDGMVGFIIGRGGEQISRIQQESGCKIQIAPDSGGLPERSCMLTGTPESVQTAKRLLDQIVE, the abundance fitness is -0.005 ± 0.029.

Turning to RSVMTEEYKVPDGMVGFIIGRGGEQISRIQQESGCKIQIAPDSGGLPERSCMLTGTPESVQPAKRLLDQIVE, the abundance fitness was -0.727 ± 0.041.

Regarding RSVMTEEYKVPDGMVGFIIGRGGEQISRIQQESGCKIQIAPDSGGLPERSCMLTGTPESVQIAKRLLDQIVE, the abundance fitness is -0.082 ± 0.053.

As to RSVMTEEYKVPDGMVGFIIGRGGEQISRIQQESGCKIQIAPDSGGLPERSCMLTGTPESVQFAKRLLDQIVE, the abundance fitness is -0.071 ± 0.04.

As for RSVMTEEYKVPDGMVGFIIGRGGEQISRIQQESGCKIQIAPDSGGLPERSCMLTGTPESVQQAKRLLDQIVE, the abundance fitness is -0.019 ± 0.031.

Regarding RSVMTEEYKVPDGMVGFIIGRGGEQISRIQQESGCKIQIAPDSGGLPERSCMLTGTPESVQHAKRLLDQIVE, the abundance fitness was -0.01 ± 0.038.

Regarding RSVMTEEYKVPDGMVGFIIGRGGEQISRIQQESGCKIQIAPDSGGLPERSCMLTGTPESVQRAKRLLDQIVE, the abundance fitness is -0.017 ± 0.023.

Consider RSVMTEEYKVPDGMVGFIIGRGGEQISRIQQESGCKIQIAPDSGGLPERSCMLTGTPESVQYAKRLLDQIVE, for which the abundance fitness was -0.066 ± 0.041.

Regarding RSVMTEEYKVPDGMVGFIIGRGGEQISRIQQESGCKIQIAPDSGGLPERSCMLTGTPESVQSAKRELDQIVE, the abundance fitness is -0.017 ± 0.028.

Regarding RSVMTEEYKVPDGMVGFIIGRGGEQISRIQQESGCKIQIAPDSGGLPERSCMLTGTPESVQSAKRFLDQIVE, the abundance fitness was -0.087 ± 0.04.

In the case of RSVMTEEYKVPDGMVGFIIGRGGEQISRIQQESGCKIQIAPDSGGLPERSCMLTGTPESVQSAKRMLDQIVE, the abundance fitness is -0.006 ± 0.033.

Regarding RSVMTEEYKVPDGMVGFIIGRGGEQISRIQQESGCKIQIAPDSGGLPERSCMLTGTPESVQSAKRPLDQIVE, the abundance fitness was -0.684 ± 0.04.

Regarding RSVMTEEYKVPDGMVGFIIGRGGEQISRIQQESGCKIQIAPDSGGLPERSCMLTGTPESVQSAKRILDQIVE, the abundance fitness is -0.045 ± 0.039.

As for RSVMTEEYKVPDGMVGFIIGRGGEQISRIQQESGCKIQIAPDSGGLPERSCMLTGTPESVQSAKRDLDQIVE, the abundance fitness was -0.127 ± 0.035.

In the case of RSVMTEEYKVPDGMVGFIIGRGGEQISRIQQESGCKIQIAPDSGGLPERSCMLTGTPESVQSAKRCLDQIVE, the abundance fitness was 0 ± 0.034.

On to RSVMTEEYKVPDGMVGFIIGRGGEQISRIQQESGCKIQIAPDSGGLPERSCMLTGTPESVQSAKRALDQIVE, for which the abundance fitness is -0.076 ± 0.029.

For RSVMTEEYKVPDGMVGFIIGRGGEQISRIQQESGCKIQIAPDSGGLPERSCMLTGTPESVQSAKRNLDQIVE, the abundance fitness is -0.108 ± 0.039.

Regarding RSVMTEEYKVPDGMVGFIIGRGGEQISRIQQESGCKIQIAPDSGGLPERSCMLTGTPESVQSAKRRLDQIVE, the abundance fitness is -0.053 ± 0.024.

Regarding RSVMTEEYKVPDGMVGFIIGRGGEQISRIQQESGCKIQIAPDSGGLPERSCMLTGTPESVQSAKRHLDQIVE, the abundance fitness is -0.05 ± 0.039.
